According to patent US20240141060A1 (Novartis, published 2024):

Legend:
[1] = biological target: T1, Recombinant Mouse 5′-Nucleotidase/CD73 Protein, CF (R&D Systems Cat: 4488-EN) (mouse, UniProt Q61503 29-549, limits assumed); assay: Biacore SPR, Fab captured by anti-human Fab on CM5 chip, CD73 as analyte
T1 construct: Bought protein; also called Mouse CD73-His; recombinant mouse CD73; not shown: His tag
T1 sequence (looked up): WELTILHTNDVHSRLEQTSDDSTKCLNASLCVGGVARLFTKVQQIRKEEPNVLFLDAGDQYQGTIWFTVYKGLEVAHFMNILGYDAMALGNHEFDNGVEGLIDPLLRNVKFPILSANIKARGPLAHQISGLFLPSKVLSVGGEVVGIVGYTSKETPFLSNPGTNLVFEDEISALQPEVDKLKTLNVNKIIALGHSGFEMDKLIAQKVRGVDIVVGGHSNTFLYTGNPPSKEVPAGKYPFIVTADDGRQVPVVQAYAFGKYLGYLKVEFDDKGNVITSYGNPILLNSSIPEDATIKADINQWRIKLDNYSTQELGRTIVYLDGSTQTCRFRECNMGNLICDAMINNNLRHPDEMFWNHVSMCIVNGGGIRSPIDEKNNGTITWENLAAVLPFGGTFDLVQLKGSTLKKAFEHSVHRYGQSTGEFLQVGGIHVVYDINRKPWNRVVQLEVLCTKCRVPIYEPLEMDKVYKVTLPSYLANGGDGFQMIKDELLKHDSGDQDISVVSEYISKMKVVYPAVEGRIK
Experimental: (§1) Proteins used were as follows: recombinant human CD73 (R&D Systems 5795-EN); recombinant cynomolgus monkey CD73 (Sino Biological 90912-C08H); recombinant mouse CD73 (R&D Systems 4488-EN); and recombinant rat CD73 (Sino Biological 80375-R08H). Anti-human Fab (GE Healthcare Life Sciences) was immobilized on all 4 flow cells (Fc) on a CM5 chip (GE). […] 0.01 nM to 90 nM CD73 (3-fold dilution series) was flown over all 4 Fcs. All samples were diluted in running buffer HBS-EP+(pH 7.4, 0.01 M HEPES, 150 mM NaCl, 3 mM EDTA and 0.05% (v/v) P20).

[2] = biological target: T2, recombinant rat CD73 (Sino Biological 80375-R08H) (rat, UniProt P21588 29-551); assay: as above
T2 construct: Bought protein; also called rCD73; rat CD73/His
T2 sequence (looked up): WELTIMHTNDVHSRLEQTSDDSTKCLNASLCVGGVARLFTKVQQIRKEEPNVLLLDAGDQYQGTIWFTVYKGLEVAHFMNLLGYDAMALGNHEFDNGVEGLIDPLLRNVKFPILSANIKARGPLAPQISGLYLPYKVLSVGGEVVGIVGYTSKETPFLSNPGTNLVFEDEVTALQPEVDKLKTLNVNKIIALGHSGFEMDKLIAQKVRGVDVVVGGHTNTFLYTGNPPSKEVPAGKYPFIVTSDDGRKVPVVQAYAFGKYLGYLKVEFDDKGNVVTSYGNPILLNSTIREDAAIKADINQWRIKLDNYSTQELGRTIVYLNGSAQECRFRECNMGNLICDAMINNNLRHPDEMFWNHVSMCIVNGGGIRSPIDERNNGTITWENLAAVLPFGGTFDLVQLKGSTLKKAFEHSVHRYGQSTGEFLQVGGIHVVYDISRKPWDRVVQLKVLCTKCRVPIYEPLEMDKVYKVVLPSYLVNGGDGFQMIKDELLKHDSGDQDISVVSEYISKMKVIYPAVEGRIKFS
Experimental: as §1

[3] = biological target: T3, Recombinant Human 5′-Nucleotidase/CD73 Protein, CF (R&D Systems Cat: 5795-EN) (human, UniProt P21589 27-547); assay: Biacore SPR, Fab captured by anti-human Fab on CM5 chip, CD73 0.01-90 nM as analyte
T3 construct: Bought protein; also called Human CD73-His; recombinant human CD73; not shown: His tag
T3 sequence (looked up): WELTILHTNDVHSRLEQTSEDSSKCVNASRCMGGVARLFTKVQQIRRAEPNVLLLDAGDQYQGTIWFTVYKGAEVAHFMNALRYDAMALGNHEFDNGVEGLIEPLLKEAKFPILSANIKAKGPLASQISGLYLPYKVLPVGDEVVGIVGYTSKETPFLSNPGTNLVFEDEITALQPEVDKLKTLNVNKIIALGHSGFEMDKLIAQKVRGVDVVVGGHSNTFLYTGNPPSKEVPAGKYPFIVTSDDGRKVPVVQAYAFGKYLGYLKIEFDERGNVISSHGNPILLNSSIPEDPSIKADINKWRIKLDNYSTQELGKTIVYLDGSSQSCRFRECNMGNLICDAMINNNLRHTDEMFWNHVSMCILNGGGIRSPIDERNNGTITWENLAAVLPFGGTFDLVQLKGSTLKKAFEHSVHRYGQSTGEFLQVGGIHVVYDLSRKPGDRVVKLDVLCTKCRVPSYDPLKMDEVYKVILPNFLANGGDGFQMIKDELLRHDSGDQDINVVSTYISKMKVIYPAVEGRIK
Experimental: as §1

[4] = biological target: T4, Cynomolgus CD73/NT5E Protein (His Tag) (Sino Biological Cat: 90192-C08H-50) (cynomolgus monkey, UniProt A0A2K5V5U7 27-547); assay: as above
T4 construct: treated as one protein; also called Cynomolgus CD73-His; recombinant cynomolgus monkey CD73; not shown: His tag
T4 sequence: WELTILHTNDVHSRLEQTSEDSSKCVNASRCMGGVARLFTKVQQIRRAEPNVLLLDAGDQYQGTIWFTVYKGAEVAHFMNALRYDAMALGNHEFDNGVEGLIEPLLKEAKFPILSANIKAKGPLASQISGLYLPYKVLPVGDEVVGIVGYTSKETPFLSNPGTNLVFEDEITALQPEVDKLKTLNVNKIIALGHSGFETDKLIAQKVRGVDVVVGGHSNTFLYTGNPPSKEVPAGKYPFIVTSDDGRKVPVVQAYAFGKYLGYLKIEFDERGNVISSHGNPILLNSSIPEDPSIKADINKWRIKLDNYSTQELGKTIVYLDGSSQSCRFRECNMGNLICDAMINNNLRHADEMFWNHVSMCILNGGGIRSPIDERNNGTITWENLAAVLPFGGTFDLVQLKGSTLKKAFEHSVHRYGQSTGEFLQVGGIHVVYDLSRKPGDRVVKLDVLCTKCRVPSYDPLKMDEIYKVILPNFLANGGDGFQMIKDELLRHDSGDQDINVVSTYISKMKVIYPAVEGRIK
Experimental: as §1

[5] = biological target: T1, Recombinant Mouse 5′-Nucleotidase/CD73 …; assay: Biacore SPR, His-tagged CD73 captured by anti-His antibody on CM5 chip, Fab as analyte
Experimental: (§2) The anti-His Ab was directly immobilized onto a CM5 chip surface by amine coupling. The His-tagged human CD73/His, cynomolgus monkey CD73/His, mouse CD73/His or rat CD73/His was flowed over and captured at a desired resonance unit (RU) for an Rmax of 20. Antibody analyte concentrations in serial dilutions of IgG or Fab were flowed over at 60 μL/min. The sensorgrams were analyzed using the manufacturer's software for a 1:1 binding model.

[6] = biological target: T2, recombinant rat CD73 (Sino Biological …); assay: as above
Experimental: as §2

[7] = biological target: T4, Cynomolgus CD73/NT5E Protein (His Tag) …; assay: ForteBio Octet RED384 (BLI), whole IgG on AHQ sensors, 100 nM antigen, 1:1 model
Experimental: (§3) Briefly, ForteBio affinity measurements were performed by loading IgGs on-line onto AHQ sensors. Sensors were equilibrated off-line in assay buffer for 30 min and then monitored on-line for 60 seconds for baseline establishment. Sensors with loaded IgGs were exposed to 100 nM antigen for 3 minutes, and afterwards were transferred to assay buffer for 3 min for off-rate measurement. All kinetics were analyzed using the 1:1 binding model. Antigens used were: [0438] Human CD73-His: Recombinant Human 5′-Nucleotidase/CD73 Protein, CF from R&D Systems Cat: 5795-EN [0439] Mouse CD73-His: Recombinant Mouse 5′-Nucleotidase/CD73 Protein, CF from R&D Systems Cat: 4488-EN [0440] Cynomolgus CD73-His: Cynomolgus CD73/NT5E Protein (His Tag) from Sino Biological Cat: 90192-C08H-50

[8] = biological target: T3, Recombinant Human 5′-Nucleotidase/CD73 …; assay: ForteBio Octet RED384 (BLI), whole IgG on AHQ sensors, 100 nM antigen, 1:1 model; * value approaching upper limit for Kd measurement
Experimental: as §3

[9] = biological target: T1, Recombinant Mouse 5′-Nucleotidase/CD73 …; assay: as above
Experimental: as §3

[10] = biological target: T1, Recombinant Mouse 5′-Nucleotidase/CD73 …; assay: Biacore SPR, Fab captured by anti-human Fab on CM5 chip, CD73 0.01-90 nM as analyte
Experimental: as §1

[11] = biological target: T2, recombinant rat CD73 (Sino Biological …); assay: as above
Experimental: as §1

B1: Fab 373 (Fab, V domains shown)
VH: EVQLLESGGGLVQPGGSLRLSCAASGFTFHRYAMSWVRQAPGKGLEWVSAISGSGMNTYYADSVKGRFTISRDNSKNTLYLQMNSLRAEDTAVYYCARGGLYGSGSYLSDFDLWGRGTLVTVSS
VL: EIVLTQSPATLSVSPGERATLSCRASQSVGSNLAWYQQKPGQAPRLLIYGASTRATGIPARFSGSGSGTEFTLTISSLQSEDFAVYYCQQHNAFPYTFGGGTKVEIKR
Q: Does B1 bind [1]?
A: no binding (tested: 0.01 nM to 90 nM CD73)

Q: Does B1 bind [2]?
A: no binding (tested: 0.01 nM to 90 nM CD73)

Q: And the Kd [3]?
A: 13 nM

Q: And the Kd [4]?
A: 9.46 nM

B2: 373.A Fab (Fab, V domains shown)
VH: EVQLLESGGGLVQPGGSLRLSCAASGFTFHRYAMSWVRQAPGKGLEWVSAISGSGMNTYYADSVKGRFTISRDNSKNTLYLQMNSLRAEDTAVYYCARGGLYGSGSYLSDFDLWGRGTLVTVSS
VL: EIVLTQSPATLSVSPGERATLSCRASQSVGSNLAWYQQKPGQAPRLLIYGASTRATGIPARFSGSGSGTEFTLTISSLQSEDFAVYYCQQHNAFPYTFGGGTKVEIKR
Q: Does B2 bind [5]?
A: no binding

Q: Does B2 bind [6]?
A: no binding

B3: 350.C (antibody, V domains shown)
VH: QVQLQESGPGLVKPSETLSLTCTVSGGSIERYYWSWIRQPPGKGLEWIGYIYGRGSTNYNPSLKSRVTISVDTSKNQFSLKLSSVTAADTAVYYCARESQESPYNNWFDPWGQGTLVTVSS
VL: DIQMTQSPSSVSASVGDRVTITCRASQGISSWLAWYQQKPGKAPKLLIYAASSLQSGVPSRFSGSGSGTDFTLTISSLQPEDFATYYCQQGNSFPRTFGGGTKVEIK
notes: also called 350 IgG1 format
Q: Which results are given for B3?
A: Kd [7]: 0.635 nM; Kd [8]: 0.248 nM; Kd [9]: 0.409 nM

B4: Fab 350 (Fab, V domains shown)
VH: QVQLQESGPGLVKPSETLSLTCTVSGGSIERYYWSWIRQPPGKGLEWIGYIYGRGSTNYNPSLKSRVTISVDTSKNQFSLKLSSVTAADTAVYYCARESQESPYNNWFDPWGQGTLVTVSS
VL: DIQMTQSPSSVSASVGDRVTITCRASQGISSWLAWYQQKPGKAPKLLIYAASSLQSGVPSRFSGSGSGTDFTLTISSLQPEDFATYYCQQGNSFPRTFGGGTKVEIKR
notes: Made by a stop between the two proline residues above the core hinge region of the heavy chain; also called 350 Fab; Fab of mAb 350
Q: Which Kd [3] does the source give for B4 here?
A: ≤ 0.1 nM

Q: And the Kd [4]?
A: ≤ 0.1 nM

Q: And the Kd [10]?
A: 17.3 nM

Q: And the Kd [11]?
A: 28.3 nM
